*: point of attachment. FITC = O=C1OC2(c3ccc(O)cc3Oc3cc(O)ccc32)c2ccc(NC(=S)*)cc21; Ahx = NCCCCCC(=O)O
Experiments:
[1] = target: T1, hEGFRvIII (Homo sapiens, UniProt P00533, DELINS30-297G); assay: Phage display biopanning against hEGFRvIII with NGS enrichment analysis; assay type: binding; conditions: over rounds of biopanning
T1 construct: using purified and active extracellular domain for EGFRvIII protein; purchased Sino Biological
Experimental: Ph.D.-12™ Phage Display Peptide Library Kit was purchased from New England Biolabs Inc. (Beverly, MA, USA). Biopanning procedures were done according to the manufacturer's instruction with certain modifications. Briefly, a 96-well plate was coated with 150 μL hEGFRvIII (Sino Biological) (in the first two rounds at 100 μg/mL, the third round at 10 μg/mL) overnight at 4° C. Wells were washed with PBS, blocked with blocking buffer (3% BSA in PBS), washed six times with cold PBST (PBS+0.1% [v/v] Tween-20), then incubated with […] phage peptide library Ph.D.-12 for 2 hours at RT. […]
The NGS data analysis is an imperative approach to filter out all the non-specific binders and identify the putative binders. In addition, NGS also allows us to perform deeper quantitative analysis, such as calculating the frequency of amino acids distribution in each position of the peptide sequence, consensus motif and target unrelated peptides. […] This is highly useful as we can follow how the read of a peptide evolves or changes with the rounds of biopanning. […] The total number of sequences and the corresponding number of reads for each DNA sequence are recorded in a separate CSV file. […] Due to codon degeneracy, different codons can translate into same amino acids, thus after translation identical sequences exist with different reads. […]

[2] = target: T2, human EGF receptor variant III (EGFRvIII) on CLTH/EGFRvIII cells (human, UniProt P00533 25-1210); assay: flow cytometry, normalized MFI on EGFRvIII cells over normalized MFI on EGFR WT cells
T2 construct: whole, on cells
Experimental: On FITC-Ahx-peptides. Flow cytometry analysis was also performed to quantitatively analyze the binding affinity of the synthetized peptides to the different cell types. […] The next day, cells were treated with FITC-Ahx-peptides using a stock solution in pure DMSO at 5 mM to reach a final concentration of 10 µM (final percentage of DMSO of 0.2%). Plates were incubated for 20 min at RT. Cells were detached from the plates by a PBS fush, transferred to FACS tubes and washed 2 times with 4 mL of PBS. Cells were stained with LIVE/DEAD™ Fixable Near-IR Dead Cell Stain Kit (Thermofisher) as a viability marker. Cells were analyzed by flow cytometry on a MACSQuant Analyser 16 (Miltenyi Biotec) using the MACS Quantify software to acquire and process the data. LIVE/DEAD™ Fixable dye was excited at 640 nm and fluorescence was collected with the 785/62 nm filter. FITC was excited at 488 nm and fluorescence was collected with the 525/50 nm filter. Viable cells were gated, FITC fluorescence intensity was recorded and the mean fluorescence intensity (MFI) was measured. MFI values were then normalized by substracting MFI from blank cells and dividing by the correction factor determined using a spectrofluorimeter.

## NPIVRSAEDGQL (Negative hit peptide) [negative hit peptide from biopanning]
[1]
  enrichment on NGS: didn't show any significant enrichment

B1: FITC-Ahx-YHWYGYTPENVI-CONH2 (peptide)
peptide: {FITC-Ahx}-YHWYGYTPENVI-NH2
SMILES: CC[C@H](C)[C@H](NC(=O)[C@@H](NC(=O)[C@H](CC(N)=O)NC(=O)[C@H](CCC(=O)O)NC(=O)[C@@H]1CCCN1C(=O)[C@@H](NC(=O)[C@H](Cc1ccc(O)cc1)NC(=O)CNC(=O)[C@H](Cc1ccc(O)cc1)NC(=O)[C@H](Cc1c[nH]c2ccccc12)NC(=O)[C@H](Cc1c[nH]cn1)NC(=O)[C@H](Cc1ccc(O)cc1)NC(=O)CCCCCNC(=S)Nc1ccc2c(c1)C(=O)OC21c2ccc(O)cc2Oc2cc(O)ccc21)[C@@H](C)O)C(C)C)C(N)=O
[2]
  Normalized MFI ratio vIII/WT: 2.1

From US20250368684A1, “NEW EGFRVIII-BINDING PEPTIDES, CONJUGATES AND USES THEREOF” (NANOTHERA BIOSCIENCES, INC., priority 2021, published 2025)
